Consider seven molecules from US20090226432A1 (MICROMET, published 2009).

In assay [1] the target is T1, soluble human CEA antigen (human, UniProt P06731 35-685, limits assumed, biotinylated with EZ-Link Sulfo NHS-LC-LC-Biotin in the ELISA (not in the cytotoxicity competition assays)).
T1 construct: also called soluble CEA; soluble biotinylated human CEA (Abcam)
T1 sequence: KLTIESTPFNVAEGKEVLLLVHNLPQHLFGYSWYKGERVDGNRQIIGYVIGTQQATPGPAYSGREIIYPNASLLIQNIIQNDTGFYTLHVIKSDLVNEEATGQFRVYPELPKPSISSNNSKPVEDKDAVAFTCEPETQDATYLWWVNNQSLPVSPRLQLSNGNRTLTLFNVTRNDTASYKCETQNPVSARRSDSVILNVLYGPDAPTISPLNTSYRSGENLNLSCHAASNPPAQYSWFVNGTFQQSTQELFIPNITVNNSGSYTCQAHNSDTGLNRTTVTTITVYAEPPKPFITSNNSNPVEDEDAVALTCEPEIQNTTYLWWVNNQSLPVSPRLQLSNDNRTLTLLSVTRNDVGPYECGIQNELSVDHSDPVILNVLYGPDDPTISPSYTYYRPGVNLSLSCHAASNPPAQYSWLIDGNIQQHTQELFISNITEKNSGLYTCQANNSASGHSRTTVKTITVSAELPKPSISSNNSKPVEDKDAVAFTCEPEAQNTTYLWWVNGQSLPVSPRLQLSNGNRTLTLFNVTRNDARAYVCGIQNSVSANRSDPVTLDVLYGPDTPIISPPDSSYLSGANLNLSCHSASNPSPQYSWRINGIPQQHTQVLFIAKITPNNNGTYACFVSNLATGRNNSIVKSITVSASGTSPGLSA
In words: direct ELISA, biotinylated soluble CEA on streptavidin plate; 0.5 and 5 ug/ml. On the procedure:
The direct ELISA to determine the specificity of CEA×CD3 bispecific single chain antibody against soluble human CEA was carried out according to standard procedures. Briefly, 50 μl/well PBS or soluble biotinylated human CEA (Abcam; 5 μg/ml in 1×PBS) were immobilized on a 96-well streptavidin-coated ELISA plate (Nunc) by incubating at 4° C. for about 16 hours. After washing with 200 μl water per well 200 μl of blocking solution (PBS/3% BSA) was added. After blocking for 1 h at room temperature the blocking solution was removed. All subsequent washing (200 μl/well of 1×PBS/0.05% (v/v) Tween20) and incubation steps were performed at room temperature. After washing once, the CEAI VHVL×SEQ ID NO.77 VHVL (SEQ ID NO. 8; anti-CEA part derived from mAb A5B7), CEAII VHVL×SEQ ID NO.77 VHVL (SEQ ID NO. 10; anti-CEA part derived from mAb T84.66), and CEAIII VHVL×SEQ ID NO.77 VHVL (SEQ ID NO. 14; anti-CEA part derived from mAb MFE-23) bispecific single chain antibodies, and mouse monoclonal antibody CEA/CD66 Ab-3 (Col-1; Dunn) were incubated in different concentrations (0.5 μg/ml and 5 μg/ml in 1×PBS; 50 μl/well) for 1 hour. 1×PBS (50 μl/well) was added as a control for unspecific binding. 3 washing steps were followed by adding 50 μl/well Penta-His IgG (Qiagen; 2 μg/ml in 1×PBS) for detection of the His-tagged bispecific single chain antibodies. Subsequently, the wells were washed 3 times and incubated with 50 μl of a horseradish peroxidase-labelled goat anti-mouse Fc gamma-specific antibody (Jackson ImmuneResearch; 1:1000 in 1×PBS) for 1 hour. After washing 3 times the ELISA was developed by adding ABTS substrate solution (Roche) and the absorbance was measured at a wavelength of 405 nm.

Assay [2] has as its target T1, soluble human CEA antigen. Kind of assay: refers to the ELISA of FIG. 2.
Assay [3] has as its target T1, soluble human CEA antigen. In words: refers to Examples 2 and 3 (flow cytometry, ELISA). Background: In flow cytometry, cells or beads pass a laser one at a time.

B1: CEA II VHVL x SEQ ID NO. 77 VHVL (bispecific antibody)
chain: EVQLQQSGAELVEPGASVKLSCTASGFNIKDTYMHWVKQRPEQGLEWIGRIDPANGNSKYVPKFQGKATITADTSSNTAYLQLTSLTSEDTAVYYCAPFGYYVSDYAMAYWGQGTSVTVSSGGGGSGGGGSGGGGSDIVLTQSPASLAVSLGQRATMSCRAGESVDIFGVGFLHWYQQKPGQPPKLLIYRASNLESGIPVRFSGTGSRTDFTLIIDPVEADDVATYYCQQTNEDPYTFGGGTKLEIKSGGGGSDVQLVQSGAEVKKPGASVKVSCKASGYTFTRYTMHWVRQAPGQGLEWIGYINPSRGYTNYADSVKGRFTITTDKSTSTAYMELSSLRSEDTATYYCARYYDDHYCLDYWGQGTTVTVSSGEGTSTGSGGSGGSGGADDIVLTQSPATLSLSPGERATLSCRASQSVSYMNWYQQKPGKAPKRWIYDTSKVASGVPARFSGSGSGTDYSLTINSLEAEDAATYYCQQWSSNPLTFGGGTKVEIK
notes: Bispecific single chain antibody; anti-CEA part from mAb T84.66; also called CEA II HL
With B1, in assay [1], the binding result was “binds”.

B2: SEQ ID NO. 77 VHVL x CEA I VHVL (bispecific antibody)
chain: DVQLVQSGAEVKKPGASVKVSCKASGYTFTRYTMHWVRQAPGQGLEWIGYINPSRGYTNYADSVKGRFTITTDKSTSTAYMELSSLRSEDTATYYCARYYDDHYCLDYWGQGTTVTVSSGEGTSTGSGGSGGSGGADDIVLTQSPATLSLSPGERATLSCRASQSVSYMNWYQQKPGKAPKRWIYDTSKVASGVPARFSGSGSGTDYSLTINSLEAEDAATYYCQQWSSNPLTFGGGTKVEIKSGGGGSQVQLQESGGGLVQPGGSLRLSCATSGFTFTDYYMNWVRQPPGKALEWLGFIGNKANGYTTEYSASVKGRFTISRDKSQSILYLQMNTLRAEDSATYYCTRDRGLRFYFDYWGQGTTVTVSSGGGGSGGGGSGGGGSDIELTQSPAILSASPGEKVTMTCRASSSVTYIHWYQQKPGSSPKSWIYATSNLASGVPARFSGSGSGTSYSLTISRVEAEDAATYYCQHWSSKPPTFGGGTKLEIK
notes: Bispecific single chain antibody, anti-CD3 part N-terminal, anti-CEA part from mAb A5B7
Consider B2, for which the binding result in assay [2] is “binds”.

B3: SEQ ID NO. 77 VHVL x CEA I VLVH (bispecific antibody)
chain: DVQLVQSGAEVKKPGASVKVSCKASGYTFTRYTMHWVRQAPGQGLEWIGYINPSRGYTNYADSVKGRFTITTDKSTSTAYMELSSLRSEDTATYYCARYYDDHYCLDYWGQGTTVTVSSGEGTSTGSGGSGGSGGADDIVLTQSPATLSLSPGERATLSCRASQSVSYMNWYQQKPGKAPKRWIYDTSKVASGVPARFSGSGSGTDYSLTINSLEAEDAATYYCQQWSSNPLTFGGGTKVEIKSGGGGSDIELTQSPAILSASPGEKVTMTCRASSSVTYIHWYQQKPGSSPKSWIYATSNLASGVPARFSGSGSGTSYSLTISRVEAEDAATYYCQHWSSKPPTFGGGTKLEIKGGGGSGGGGSGGGGSQVQLQESGGGLVQPGGSLRLSCATSGFTFTDYYMNWVRQPPGKALEWLGFIGNKANGYTTEYSASVKGRFTISRDKSQSILYLQMNTLRAEDSATYYCTRDRGLRFYFDYWGQGTTVTVSS
notes: as for B2
B3: in assay [2], the binding result is listed as “binds”.

B4: CEA I VHVL x SEQ ID NO. 77 VHVL (bispecific antibody)
chain: QVQLQESGGGLVQPGGSLRLSCATSGFTFTDYYMNWVRQPPGKALEWLGFIGNKANGYTTEYSASVKGRFTISRDKSQSILYLQMNTLRAEDSATYYCTRDRGLRFYFDYWGQGTTVTVSSGGGGSGGGGSGGGGSDIELTQSPAILSASPGEKVTMTCRASSSVTYIHWYQQKPGSSPKSWIYATSNLASGVPARFSGSGSGTSYSLTISRVEAEDAATYYCQHWSSKPPTFGGGTKLEIKSGGGGSDVQLVQSGAEVKKPGASVKVSCKASGYTFTRYTMHWVRQAPGQGLEWIGYINPSRGYTNYADSVKGRFTITTDKSTSTAYMELSSLRSEDTATYYCARYYDDHYCLDYWGQGTTVTVSSGEGTSTGSGGSGGSGGADDIVLTQSPATLSLSPGERATLSCRASQSVSYMNWYQQKPGKAPKRWIYDTSKVASGVPARFSGSGSGTDYSLTINSLEAEDAATYYCQQWSSNPLTFGGGTKVEIK
notes: Bispecific single chain antibody; also called CEA I-HL
Turning to B4, in assay [1], the binding result is “binds”.

B5: CEA III VLVH x SEQ ID NO. 77 VHVL (bispecific antibody)
chain: ENVLTQSPAIMSASPGEKVTITCSASSSVSYMHWFQQKPGTSPKLWIYSTSNLASGVPARFSGSGSGTSYSLTISRMEAEDAATYYCQQRSSYPLTFGAGTKLELKGGGGSGGGGSGGGGSQVKLQQSGAELVRSGTSVKLSCTASGFNIKDSYMHWLRQGPEQGLEWIGWIDPENGDTEYAPKFQGKATFTTDTSSNTAYLQLSSLTSEDTAVYYCNEGTPTGPYYFDYWGQGTTVTVSSGGGGSDVQLVQSGAEVKKPGASVKVSCKASGYTFTRYTMHWVRQAPGQGLEWIGYINPSRGYTNYADSVKGRFTITTDKSTSTAYMELSSLRSEDTATYYCARYYDDHYCLDYWGQGTTVTVSSGEGTSTGSGGSGGSGGADDIVLTQSPATLSLSPGERATLSCRASQSVSYMNWYQQKPGKAPKRWIYDTSKVASGVPARFSGSGSGTDYSLTINSLEAEDAATYYCQQWSSNPLTFGGGTKVEIK
notes: Bispecific single chain antibody; anti-CEA part from mAb MFE-23; also called CEA III-LH
Take B5: in assay [3], the binding result was “binds”.

B6: CEA III VHVL x SEQ ID NO. 77 VHVL (bispecific antibody)
chain: QVKLQQSGAELVRSGTSVKLSCTASGFNIKDSYMHWLRQGPEQGLEWIGWIDPENGDTEYAPKFQGKATFTTDTSSNTAYLQLSSLTSEDTAVYYCNEGTPTGPYYFDYWGQGTTVTVSSGGGGSGGGGSGGGGSENVLTQSPAIMSASPGEKVTITCSASSSVSYMHWFQQKPGTSPKLWIYSTSNLASGVPARFSGSGSGTSYSLTISRMEAEDAATYYCQQRSSYPLTFGAGTKLELKSGGGGSDVQLVQSGAEVKKPGASVKVSCKASGYTFTRYTMHWVRQAPGQGLEWIGYINPSRGYTNYADSVKGRFTITTDKSTSTAYMELSSLRSEDTATYYCARYYDDHYCLDYWGQGTTVTVSSGEGTSTGSGGSGGSGGADDIVLTQSPATLSLSPGERATLSCRASQSVSYMNWYQQKPGKAPKRWIYDTSKVASGVPARFSGSGSGTDYSLTINSLEAEDAATYYCQQWSSNPLTFGGGTKVEIK
notes: Bispecific single chain antibody; anti-CEA part from mAb MFE-23; also called CEA III-HL
Consider B6, for which the binding result in assay [1] is on record as “binds”.

B7: CEA I VLVH x SEQ ID NO. 77 VHVL (bispecific antibody)
chain: DIELTQSPAILSASPGEKVTMTCRASSSVTYIHWYQQKPGSSPKSWIYATSNLASGVPARFSGSGSGTSYSLTISRVEAEDAATYYCQHWSSKPPTFGGGTKLEIKGGGGSGGGGSGGGGSQVQLQESGGGLVQPGGSLRLSCATSGFTFTDYYMNWVRQPPGKALEWLGFIGNKANGYTTEYSASVKGRFTISRDKSQSILYLQMNTLRAEDSATYYCTRDRGLRFYFDYWGQGTTVTVSSGGGGSDVQLVQSGAEVKKPGASVKVSCKASGYTFTRYTMHWVRQAPGQGLEWIGYINPSRGYTNYADSVKGRFTITTDKSTSTAYMELSSLRSEDTATYYCARYYDDHYCLDYWGQGTTVTVSSGEGTSTGSGGSGGSGGADDIVLTQSPATLSLSPGERATLSCRASQSVSYMNWYQQKPGKAPKRWIYDTSKVASGVPARFSGSGSGTDYSLTINSLEAEDAATYYCQQWSSNPLTFGGGTKVEIK
notes: Bispecific single chain antibody; anti-CEA part from murine mAb A5B7; also called CEA I-LH
As to B7, the binding result in assay [2] is on record as “binds”.
